Laboratory results as given in patent publication US20260035476A1.

Molecular target: CD68 protein (human) (UniProt P34810)
Assay: flow cytometry on lupus patient PBMC, B cells (FIG. 3B)

Chain of UniProt P34810 (P34810 22-354): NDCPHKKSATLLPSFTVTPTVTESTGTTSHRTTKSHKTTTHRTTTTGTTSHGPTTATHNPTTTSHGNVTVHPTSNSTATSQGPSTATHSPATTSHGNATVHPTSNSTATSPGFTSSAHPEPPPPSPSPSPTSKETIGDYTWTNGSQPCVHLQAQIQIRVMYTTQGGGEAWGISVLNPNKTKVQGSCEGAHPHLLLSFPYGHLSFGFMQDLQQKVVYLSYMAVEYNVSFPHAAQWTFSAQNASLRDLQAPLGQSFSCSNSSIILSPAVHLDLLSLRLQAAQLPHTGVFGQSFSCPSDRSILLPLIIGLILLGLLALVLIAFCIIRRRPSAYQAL

- percent of B cells co-stained for CD68 and ARID3a: 29%
Substance: Y1/82A anti-CD68 monoclonal antibody
